The source of these data is patent US20230303675A1.

Usually Kd stands for a measure of binding affinity in units of concentration. One may read the koff as a measure of how fast the partners let go of each other. Low readings indicate slow dissociation, high ones fast dissociation. Usually kon stands for a measure of how fast the partners come together.

Experiment [1] concerns the target human Ang2 (angiopoietin-2) (human) (UniProt O15123). The experiment is described as follows: BLI (Octet), scFv amine-coupled on AR2G biosensor, Ang2 in solution at 50, 40, 30, 20 nM. For orientation: In BLI a coated tip is dipped into the sample, and binding shifts an interference pattern.
In experiment [2] the target is mouse Ang2 (angiopoietin-2) (mouse) (UniProt O35608). The experiment is described as follows: BLI (Octet), scFv amine-coupled on AR2G biosensor, Ang2 in solution.
Chain of UniProt O35608 (O35608 19-496 limits assumed): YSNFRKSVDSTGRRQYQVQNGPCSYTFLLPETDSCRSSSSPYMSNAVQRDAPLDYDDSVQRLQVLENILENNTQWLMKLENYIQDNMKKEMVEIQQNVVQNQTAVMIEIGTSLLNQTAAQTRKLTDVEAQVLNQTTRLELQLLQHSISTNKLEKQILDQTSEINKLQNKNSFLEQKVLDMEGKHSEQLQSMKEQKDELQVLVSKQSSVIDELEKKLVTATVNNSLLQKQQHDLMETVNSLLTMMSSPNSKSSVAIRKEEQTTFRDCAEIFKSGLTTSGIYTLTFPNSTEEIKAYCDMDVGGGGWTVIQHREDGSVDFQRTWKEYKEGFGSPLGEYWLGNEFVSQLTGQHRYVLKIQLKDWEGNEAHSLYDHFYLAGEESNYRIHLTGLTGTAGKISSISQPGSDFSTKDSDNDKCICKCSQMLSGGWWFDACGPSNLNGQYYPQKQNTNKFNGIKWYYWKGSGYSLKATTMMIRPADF

Chain of UniProt O15123 (O15123 19-496 limits assumed): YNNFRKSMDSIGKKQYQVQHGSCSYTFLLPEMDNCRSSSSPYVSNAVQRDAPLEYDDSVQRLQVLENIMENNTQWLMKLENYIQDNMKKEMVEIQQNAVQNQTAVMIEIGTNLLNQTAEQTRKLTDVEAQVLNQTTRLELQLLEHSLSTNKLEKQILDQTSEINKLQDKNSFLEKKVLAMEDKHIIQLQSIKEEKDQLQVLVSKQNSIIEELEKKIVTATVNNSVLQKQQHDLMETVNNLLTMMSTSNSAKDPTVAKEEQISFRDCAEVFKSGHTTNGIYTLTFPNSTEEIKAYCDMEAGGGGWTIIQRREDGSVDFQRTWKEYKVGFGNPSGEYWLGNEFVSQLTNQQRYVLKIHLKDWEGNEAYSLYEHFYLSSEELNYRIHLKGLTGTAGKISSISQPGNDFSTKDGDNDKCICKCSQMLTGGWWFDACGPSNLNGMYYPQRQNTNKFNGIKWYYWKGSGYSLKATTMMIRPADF

B1: anti-Ang2 antibody clone O4 ScFv with N76S substitution in the light-chain variable region (scFv, part only; not given: Linker, domain order and His tag, V domains shown, not shown: another chain or arm of the molecule; small tags and cut ends)
VH: QVQLVESGGGLVKPGGSLRLSCAASGFTFSSYSMNWVRQAPGKGLEWVSSISASDGATYYADSVRGRFTISRDNSRSTLYLQMNSLRAEDTAVYYCAKTLAGYSGPMGGMDVWGQGTTVTVSS
VL: DIQMTQSPSSLSASVGDRVTITCRASRDISNYLAWYQQKPGKAPKSLIYGASNLQSGVSSQFSGSGSGTDFTLTISSLQPEDSATYYCQQYYSYPLTFGGGTKVDIK
Consider B1, for which, in experiment [1], the equilibrium dissociation constant (Kd) was 313 pM, the koff worked out at 0.000172 s⁻¹ and the on-rate (kon) was 549000 M⁻¹ s⁻¹. In experiment [2], this molecule had a Kd of 231 pM, a koff of 0.000169 s⁻¹ and a kon of 733000 M⁻¹ s⁻¹.
